Measurements published in PMC2914225, “Fusion of GFP to the M.EcoKI DNA methyltransferase produces a new probe of Type I DNA restriction and modification enzymes” (Biochemical and Biophysical Research Communications, 2010).

B1: Dylight549-labelled ocr E117C mutant protein (natural protein, phage T7, UniProt P03775 1-117, looked up)
chain: MAMSNMTYNNVFDHAYEMLKENIRYDDIRDTDDLHDAIHMAADNAVPHYYADIFSVMASEGIDLEFEDSGLMPDTKDVIRILQARIYEQLTIDLWEDAEDLLNEYLEEVEEYEEDEC
modifications: Dylight549 maleimide on the introduced cysteine at 117 (labelling level 86.3%)
notes: gene 0.3 protein, ocr, from phage T7; one cysteine and so one acceptor label in each subunit; also called E117C ocr; E117E (as printed once); source: site directed mutagenesis and protein purification as described previously [17]
B2: 21TH21B (dsDNA)
DNA 1: GCCTAACCACGTGGTGCGTAC
DNA 2: GTACGCACCACGTGGTTAGGC

Columns and labels:
[1] = molecular target: GFP-MTase (M.EcoKI DNA methyltransferase, M2S1 form, with enhanced green fluorescent protein fused to the C-terminus of HsdS) (E. coli) (UniProt P08957); assay: SEC; labelled mutant ocr proteins with GFP-MTase, size exclusion chromatography as previously described [14]; 20 or 25 °C, 20 mM Tris-HCl pH 8.0, 6 mM MgCl2, 7 mM 2-mercaptoethanol
[2] = molecular target: T1, GFP-MTase (M.EcoKI DNA methyltransferase, M2S1 form, with enhanced green fluorescent protein fused to the … (E. coli, UniProt P08957 1-529; P05719 1-464); assay: as above; conditions: both partners purified
T1 construct: HsdM modification (MTase) subunit of the Type I R/M enzyme EcoKI, E. coli; its C-terminus is fused to the N-terminus of EGFP; Construct pJFMSEGFP derives from pJFMS [18] and pEGFP-N1; EGFP serves as the FRET donor; also called M.EcoKI fused to GFP; fusion protein; not shown: EGFP, C-terminal, kept; copies: 2 + 1
T1 sequence (looked up) 1: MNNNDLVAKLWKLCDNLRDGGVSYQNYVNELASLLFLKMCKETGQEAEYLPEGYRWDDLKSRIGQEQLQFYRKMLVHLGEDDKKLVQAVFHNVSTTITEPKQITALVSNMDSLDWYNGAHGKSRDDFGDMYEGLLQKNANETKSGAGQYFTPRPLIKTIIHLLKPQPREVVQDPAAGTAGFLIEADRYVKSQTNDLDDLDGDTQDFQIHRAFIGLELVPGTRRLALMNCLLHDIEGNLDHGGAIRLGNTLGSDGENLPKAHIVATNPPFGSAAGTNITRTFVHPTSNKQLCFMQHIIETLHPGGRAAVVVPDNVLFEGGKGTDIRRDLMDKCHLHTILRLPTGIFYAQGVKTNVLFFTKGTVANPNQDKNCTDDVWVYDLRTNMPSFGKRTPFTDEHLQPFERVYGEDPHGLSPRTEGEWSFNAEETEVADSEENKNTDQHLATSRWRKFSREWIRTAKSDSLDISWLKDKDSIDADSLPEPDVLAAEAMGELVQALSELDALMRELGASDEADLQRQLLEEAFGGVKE
T1 sequence (looked up) 2: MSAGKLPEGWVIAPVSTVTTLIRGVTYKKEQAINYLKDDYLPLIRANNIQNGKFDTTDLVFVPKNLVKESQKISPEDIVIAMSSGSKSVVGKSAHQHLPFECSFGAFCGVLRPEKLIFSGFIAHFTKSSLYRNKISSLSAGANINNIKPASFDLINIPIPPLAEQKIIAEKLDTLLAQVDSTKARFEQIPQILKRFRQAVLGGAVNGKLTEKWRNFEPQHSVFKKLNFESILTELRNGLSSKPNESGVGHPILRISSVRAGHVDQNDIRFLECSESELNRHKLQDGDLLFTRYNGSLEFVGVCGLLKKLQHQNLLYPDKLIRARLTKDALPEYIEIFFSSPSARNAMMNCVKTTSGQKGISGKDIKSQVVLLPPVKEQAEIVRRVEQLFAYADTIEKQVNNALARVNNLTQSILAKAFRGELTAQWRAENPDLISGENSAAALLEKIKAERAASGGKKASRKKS

[3] = molecular target: T2, GFP-MTase (M.EcoKI M2S1 with EGFP fused to C-terminus of HsdS) (Escherichia coli? (EcoKI; expressed in …, UniProt P08957;P05719 1-529;1-464); assay: FRET continuous variation titration; no NaCl; 6 mM Mg2+; 1:1 complex; 20 mM Tris-HCl pH 8.0, 6 mM MgCl2, 7 mM 2-mercaptoethanol, NaCl 0-100 mM (0 for the Kd), 20 or 25 °C; conditions: protein: recombinant; tags: EGFP-His6 at C-terminus of HsdS; chain copies: 2;1; label: 5'-HEX on top strand; blunt
T2 sequence 1: T1 sequence (looked up) 1
T2 sequence 2: T1 sequence (looked up) 2

Molecule	stoichiometry N [1]	other results
Dylight549-labelled ocr E20C mutant protein (from UniProt P03775 1-117) (natural protein)	1	
Dylight549-labelled ocr S68C mutant protein (from UniProt P03775 1-117) (natural protein)	1	
B1		stoichiometry N [2]: 1
B2		Kd [3]: 19 ± 7 nM
